Results as given in US20210317230A1 (HANGZHOU SUMGEN BIOTECH, published 2021).

B1: anti-CD38 humanized antibody SG003 (antibody, human IgG1, kappa, V domains shown)
VH: QVQLLESGGGLVQPGGSLKLSCVASGFDFSLYWMNWVRQAPGKGLEWIGKINPDSSTINYTPSLKDKFFISRDNAKNTLYLQMTKVRSEDTALYYCARLWIATGGFDYWGQGTTLTVSS
VL: EIVMTQSPASLSASLGQRATISCRASSSVSSSAFSYVHWYQQKSGQPPKLLIYLASNLESGVPARFSGSGSGTDFTLTIHPVESEDVATYYCHHSRELPFTFGSGTKLEIKR
notes: also called SG003 antibody
B2: fusion protein SG3847L1 (bispecific antibody, human IgG1, kappa)
heavy: not shown
light: EIVMTQSPASLSASLGQRATISCRASSSVSSSAFSYVHWYQQKSGQPPKLLIYLASNLESGVPARFSGSGSGTDFTLTIHPVESEDVATYYCHHSRELPFTFGSGTKLEIKRTVAAPSVFIFPPSDEQLKSGTASVVCLLNNFYPREAKVQWKVDNALQSGNSQESVTEQDSKDSTYSLSSTLTLSKADYEKHKVYACEVTHQGLSSPVTKSFNRGEC
notes: First polypeptide chain = SG003 light chain
B3: fusion protein SG3847L2 (bispecific antibody, human IgG1, kappa)
heavy: not shown
light: B2 light
notes: as for B2

How the values were obtained:
[1] = target: T1, CD38 on Raji cells (CD38 positive cells) (UniProt P28907 1-300, limits assumed); assay: cell-based or functional assay
T1 sequence (looked up): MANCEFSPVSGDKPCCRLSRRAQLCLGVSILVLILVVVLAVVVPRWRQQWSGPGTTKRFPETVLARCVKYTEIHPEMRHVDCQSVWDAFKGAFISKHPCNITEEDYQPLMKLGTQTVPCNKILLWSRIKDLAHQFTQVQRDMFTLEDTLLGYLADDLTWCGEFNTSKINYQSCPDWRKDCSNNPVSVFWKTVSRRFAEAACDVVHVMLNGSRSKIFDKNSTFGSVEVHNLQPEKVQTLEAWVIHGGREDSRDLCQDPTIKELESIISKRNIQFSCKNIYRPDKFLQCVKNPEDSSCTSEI

CD38-His [2] = target: T2, CD38-His (UniProt P28907 43-300); assay: ELISA, CD38-His coated at 1 µg/ml, anti-human IgG HRP detection
T2 construct: also called target antigen CD38; not shown: His tag
T2 sequence (looked up): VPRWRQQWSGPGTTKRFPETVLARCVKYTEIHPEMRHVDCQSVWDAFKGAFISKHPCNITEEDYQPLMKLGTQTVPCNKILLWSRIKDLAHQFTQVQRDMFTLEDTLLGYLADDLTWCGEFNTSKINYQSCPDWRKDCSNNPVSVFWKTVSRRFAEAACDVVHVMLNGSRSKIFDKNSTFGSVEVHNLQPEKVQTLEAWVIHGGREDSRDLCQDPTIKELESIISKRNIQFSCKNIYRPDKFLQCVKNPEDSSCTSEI
Protocol: (1) With SG003 as the control, the binding activity between the fusion protein and CD38 was evaluated by ELISA.
Target antigen CD38-His (1 μg/ml) was coated on ELISA bars, overnight at 4° C.; after washing with PBST, 10% of fetal calf serum was added and blocked at 37° C. for 1 hour; different concentrations of SG003 antibody, SG3847L1 or SG3847L2 fusion protein were added and reacted at 37° C. for 1 hour; after washing with PBST, horseradish peroxidase-labeled goat anti-human IgG secondary antibodies (Goat Anti human IgG HRP, Thermo Fisher Scientific) were added and reacted at 37° C. for 30 minutes, and washed with PBST for 5 times; each well was added with 100 μl TMB (eBioscience), placed in dark at room temperature (20±5° C.) for 1-2 min; then each well was added with 100 μl 2N H₂SO₄ stop solution to terminate the reaction of the substrate, OD values were read at 450 nm on the microplate reader, and the capacity of the fusion protein to bind the target antigen CD38 was analyzed.

CD47-His = target: T3, CD47-His (UniProt Q08722 19-141, limits assumed); assay: ELISA, CD47-His coated at 1 µg/ml, anti-human IgG HRP detection
T3 construct: also called target antigen CD47; not shown: His tag
Protocol: Target antigen CD47-His (1 μg/ml) was coated on ELISA bars, overnight at 4° C.; after washing with PBST, 10% of fetal calf serum was added and blocked at 37° C. for 1 hour; different concentrations of SS002M91, SG3847L1 or SG3847L2 was added and reacted at 37° C. for 1 hour; after washing with PBST, horseradish peroxidase-labeled goat anti-human IgG secondary antibodies (Goat Anti human IgG HRP, Thermo Fisher Scientific) were added and reacted at 37° C. for 30 minutes, and washed with PBST for 5 times; each well was added with […] (eBioscience), placed in dark at room temperature (20±5° C.) for 1-2 min; then each well was added with 100 μl 2N H₂SO₄ stop solution to terminate the reaction of the substrate, OD values were read at 450 nm on the microplate reader, and the capacity of the fusion protein to bind the target antigen CD47 was analyzed.

[3] = target: T4, biotin-labeled CD47 (Biotin-Fc-CD47) (UniProt Q08722 19-141, limits assumed, biotin-labeled); assay: competition ELISA: SIRPα-His coated at 1 µg/ml, Biotin-Fc-CD47 at 2 µg/ml; competitor SIRPα-His
T4 construct: not shown: Fc part
Protocol: SIRPα-His was coated on the assay plate at 1 μg/ml overnight at 4° C.; after washing with PBST, 10% of fetal calf serum was added and blocked at 37° C. for 1 hour; SS002M91, SG3847L1 or SG3847L2 was gradiently diluted respectively with 10% of fetal bovine blood, and Biotin-Fc-CD47 was added into the samples until a final concentration of 2 μg/ml, pre-incubated at 37° C. for 30 min, as the primary antibody; after the assay plate was washed with PBST, the primary antibody was added and incubated at 37° C. for 1 hour; after washing with PBST for 5 times, horseradish peroxidase-labeled avidin (Streptavidin-HRP, Jiaxuan Bio.) was added and incubated at 37° C. for 30 minutes; after washing with PBST for 5 times, each well was added with 100 μl TMB (eBioscience), placed in dark at room temperature (20±5° C.) for 1-5 min; then each well was added with 100 μl 2N H₂SO₄ stop solution to terminate the reaction of the substrate, OD values were read at 450 nm on the microplate reader, and the blocking effects of SS002M91, SG3847L1, SG3847L2 on CD47/SIRPα were analyzed.

CD38-His [4] = target: T2, CD38-His; assay: bridging ELISA: CD38-His coated, fusion protein titrated, detected with Biotin-Fc-CD47 and streptavidin-HRP (simultaneous binding of CD38 and CD47)
Protocol: (1) Referring to the principle of FIG. 5, with the anti-CD38 humanized antibody SG003 as the control, the biological activities of the fusion proteins SG3847L1 and SG3847L2 to simultaneously bind two antigens CD38 and CD47 were analyzed by ELISA.
Target antigen CD38-His (1 μg/ml) was coated on ELISA bars, overnight at 4° C.; after washing with PBST, 10% of fetal calf serum was added and blocked at 37° C. for 1 hour; different concentrations of SG003 antibody, SG3847L1 or SG3847L2 fusion protein were added and reacted at 37° C. for 1 hour; after washing with PBST, biotin-labeled CD47 (Biotin-Fc-CD47) was added and reacted at 37° C. for 30 minutes, and washed with PBST for 5 times; horseradish peroxidase-labeled avidin (Streptavidin-HRP, Jiaxuan Bio.) was added and reacted at 37° C. for 30 minutes, and washed with PBST for 5 times; each well was added with 100 μl TMB (eBioscience), placed in dark at room temperature (20±5° C.) for 1-2 min; then each well was added with 100 μl 2N H₂SO₄ stop solution to terminate the reaction of the substrate, OD values were read at 450 nm on the microplate reader, and the capacities of the fusion proteins to simultaneously bind the target antigens CD38 and CD 47 were analyzed.

T3 sequence (Q08722 19-141 limits assumed): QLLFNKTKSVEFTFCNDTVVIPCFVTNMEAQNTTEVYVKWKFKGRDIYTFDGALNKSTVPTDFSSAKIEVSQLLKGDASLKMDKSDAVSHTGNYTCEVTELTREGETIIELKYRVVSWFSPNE
T4 sequence (Q08722 19-141 limits assumed): as above

Binder	ADCC EC50 (specific kill rate, LDH release; Raji target cells, NK92MI-CD16a effector cells) [1]	EC50 (CD38-His [2])	EC50 (CD47-His)	IC50 [3]	EC50 (CD38-His [4])
B1	0.067 nM	0.133 nM			
B2	0.014 nM	0.175 nM	0.114 nM	46.8 nM	0.02 nM
B3	0.013 nM	0.149 nM	0.091 nM	78.8 nM	0.024 nM
